Measurements from PMC12135372.

Experiments:
[1] = target: Truncated Danio rerio tRNA ligase complex (His6-RTCB, FAM98B, CGI99, ASW 1-83, DDX1 693-740) (Danio rerio) (UniProt Q6NZS4)
[2] = target: Full-length five-subunit Danio rerio tRNA ligase complex (DDX1, RTCB, FAM98B, CGI99, ASW) (Danio rerio) (UniProt F1R2L8)
[3] = target: Dr-tRNA-LC-FL (DDX1, RTCB, FAM98B, CGI99, ASW) (Danio rerio) (UniProt F1R2L8+Q6NZS4+A0PJS3+Q7ZUH1); assay: MST; settings: 2 mM GTP, 2 mM MnCl2 (buffer B, implied by text); MST: 25 mM Hepes pH 7.5, 150 mM NaCl, 1 mM DTT, with or without 2 mM GTP and 2 mM MnCl2, 20 nM Cy5-tRNA, temperature not stated; crosslinking: 50 mM Tris pH …
[4] = target: T1, Dr-tRNA-LC-TR (DDX1 C-term, RTCB, FAM98B, CGI99, ASW N-term) (Danio rerio) (UniProt F1R2L8+Q6NZS4+A0PJS3+Q7ZUH1); assay: MST; settings: 2 mM GTP, 2 mM MnCl2 (buffer B, implied by text); MST: 25 mM Hepes pH 7.5, 150 mM NaCl, 1 mM DTT, with or without 2 mM GTP and 2 mM MnCl2, 20 nM Cy5-tRNA, temperature not stated; crosslinking: 50 mM Tris pH …
T1 sequence 1: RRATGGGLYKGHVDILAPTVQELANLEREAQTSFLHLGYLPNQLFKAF
T1 sequence 2: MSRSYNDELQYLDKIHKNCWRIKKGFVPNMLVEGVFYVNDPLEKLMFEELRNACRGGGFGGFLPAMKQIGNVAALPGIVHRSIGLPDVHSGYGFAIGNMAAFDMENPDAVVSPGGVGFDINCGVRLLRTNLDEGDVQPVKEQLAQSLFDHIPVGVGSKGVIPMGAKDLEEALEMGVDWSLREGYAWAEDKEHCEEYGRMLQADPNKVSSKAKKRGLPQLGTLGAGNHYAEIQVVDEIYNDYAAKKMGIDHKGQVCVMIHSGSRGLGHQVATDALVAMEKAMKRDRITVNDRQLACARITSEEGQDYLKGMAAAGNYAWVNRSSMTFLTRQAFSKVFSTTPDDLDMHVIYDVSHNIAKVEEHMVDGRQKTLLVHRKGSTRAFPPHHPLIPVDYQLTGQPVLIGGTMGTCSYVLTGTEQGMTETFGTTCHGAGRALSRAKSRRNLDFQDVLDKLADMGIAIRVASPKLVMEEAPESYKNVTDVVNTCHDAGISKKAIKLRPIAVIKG
T1 sequence 3: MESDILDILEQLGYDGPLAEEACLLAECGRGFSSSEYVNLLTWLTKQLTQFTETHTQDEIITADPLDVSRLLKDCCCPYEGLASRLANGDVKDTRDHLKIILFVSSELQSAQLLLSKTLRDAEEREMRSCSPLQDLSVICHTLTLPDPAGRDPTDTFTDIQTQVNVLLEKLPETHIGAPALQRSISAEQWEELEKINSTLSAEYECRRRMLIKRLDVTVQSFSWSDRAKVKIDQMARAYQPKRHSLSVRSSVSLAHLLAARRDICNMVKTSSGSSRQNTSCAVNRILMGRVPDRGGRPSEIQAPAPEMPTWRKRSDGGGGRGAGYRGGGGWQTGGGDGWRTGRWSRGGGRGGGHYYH
T1 sequence 4: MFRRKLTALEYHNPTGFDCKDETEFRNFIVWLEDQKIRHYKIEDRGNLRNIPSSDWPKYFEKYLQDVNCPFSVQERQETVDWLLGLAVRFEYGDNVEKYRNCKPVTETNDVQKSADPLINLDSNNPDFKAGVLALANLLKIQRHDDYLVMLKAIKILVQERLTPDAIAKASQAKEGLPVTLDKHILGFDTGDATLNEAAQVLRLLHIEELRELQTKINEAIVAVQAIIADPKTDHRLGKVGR

| Substance | RNA ligase activity on the short 10-bp RNA duplex substrate, percent of substrate converted to product, time course up to 120 min (0.15 μM complex, 0.6 μM Dr-Archease) [1] | RNA ligase activity on the short 10-bp RNA duplex substrate, percent of substrate converted to product, time course up to 120 min (0.15 μM complex, 0.6 μM Dr-Archease) [2] | Kd [3] | Kd [4] |
| --- | --- | --- | --- | --- |
| Danio rerio Archease (natural protein) | 85% | 60% |  |  |
| GGCUCCAGUGGCGCAAUCGGUUAGCGCGCGGUACUUAUAAUGCCGAGGUUGUGAGUUCGAGCCUCACCUGGAGCACCA [tRNAIle] |  |  | 94 nM | 89.4 nM |
